Data taken from US20200222518A1 (BOARD OF SUPERVISORS OF LOUISIANA STATE UNIVERSITY AND …, published 2020).

T1: Met6 peptide (Candida albicans)
T1 construct: Synthetic 14-mer (GenScript) from the N-terminus of the C. albicans Met6 cell wall protein
T1 peptide: PRIGGQRELKKITEC

T2: Fba peptide (Candida albicans)
T2 construct: Synthetic 14-mer (GenScript) from the N-terminus of C. albicans fructose-bisphosphate aldolase
T2 peptide: YGKDVKDLFDYAQEC


Legend:
[1] = molecular target: T1, Met6 peptide; experiment: specificity listed in table; hybridomas screened by anti-peptide ELISA
[2] = molecular target: T2, Fba peptide; experiment: as above

| Binder | binding result [1] | binding result [2] |
| --- | --- | --- |
| 2B10C1 (antibody, V domains shown, Mouse hybridoma mAb, IgG1; The entries are 135 AA and 131 AA and their DNA starts with ATG, so they may include the leader peptide; The limits are printed only as drawings and no residues were cut; also called 2810C1) VH: QVQLQQPGAEVVRPGASVKVSCKASGYTVSSYWMSWVKQRPEQGLEWIGRIDPYDSETHYNQKFKDKAILTVDKSSSTAYMQLSSLTSEDSAVYYCARTAASFDYWGQGTTLTVSS VL: DVVMTQTPLSLPVSLGDQASISCRSSQSLVHSNGNSYLHWYLQKPGQSPKLLIYKVSNRFSGVPDRFSGSGSGTDFTLNISRVEAEDLGVYFCSQSTHVPFTFGSGTKLEIK | binds | – |
| 2D5F7 (antibody, V domains shown, Mouse hybridoma mAb, IgG2b; The entries are 140 AA and 132 AA and their DNA starts with ATG, so they may include the leader peptide; The limits are printed only as drawings and no residues were cut) VH: QVQLQQSAAELARPGASVKMSCKASGYTFSSYTMHWVKQRPGQGLEWIGYINPSSGYTDYNQKFKDKTTLTADKSSSTAYMQLSSLTSEDSAVYYCARLYDNYDYYAMDYWGQGTSVTVSS VL: DIVMSQSPSSLAVSAGEKVTMSCKSSQSLLNSRIRKNYLAWYQQKPGQSPKLLIYWASTRESGVPDRFTGSGSGTDFTLTISSVQADDLAVYYCKQSYNLLTFGAGTKLELK | – | binds |
